The labels stand for the following.
T1: Pol I subunit A135 (S. cerevisiae, UniProt P22138 1-1203)
T1 construct: Pol I subunit A135, S. cerevisiae; Stood in the assay as a subunit of the whole Pol I; source: endogenous, purified from yeast as part of Pol I
T1 sequence (looked up): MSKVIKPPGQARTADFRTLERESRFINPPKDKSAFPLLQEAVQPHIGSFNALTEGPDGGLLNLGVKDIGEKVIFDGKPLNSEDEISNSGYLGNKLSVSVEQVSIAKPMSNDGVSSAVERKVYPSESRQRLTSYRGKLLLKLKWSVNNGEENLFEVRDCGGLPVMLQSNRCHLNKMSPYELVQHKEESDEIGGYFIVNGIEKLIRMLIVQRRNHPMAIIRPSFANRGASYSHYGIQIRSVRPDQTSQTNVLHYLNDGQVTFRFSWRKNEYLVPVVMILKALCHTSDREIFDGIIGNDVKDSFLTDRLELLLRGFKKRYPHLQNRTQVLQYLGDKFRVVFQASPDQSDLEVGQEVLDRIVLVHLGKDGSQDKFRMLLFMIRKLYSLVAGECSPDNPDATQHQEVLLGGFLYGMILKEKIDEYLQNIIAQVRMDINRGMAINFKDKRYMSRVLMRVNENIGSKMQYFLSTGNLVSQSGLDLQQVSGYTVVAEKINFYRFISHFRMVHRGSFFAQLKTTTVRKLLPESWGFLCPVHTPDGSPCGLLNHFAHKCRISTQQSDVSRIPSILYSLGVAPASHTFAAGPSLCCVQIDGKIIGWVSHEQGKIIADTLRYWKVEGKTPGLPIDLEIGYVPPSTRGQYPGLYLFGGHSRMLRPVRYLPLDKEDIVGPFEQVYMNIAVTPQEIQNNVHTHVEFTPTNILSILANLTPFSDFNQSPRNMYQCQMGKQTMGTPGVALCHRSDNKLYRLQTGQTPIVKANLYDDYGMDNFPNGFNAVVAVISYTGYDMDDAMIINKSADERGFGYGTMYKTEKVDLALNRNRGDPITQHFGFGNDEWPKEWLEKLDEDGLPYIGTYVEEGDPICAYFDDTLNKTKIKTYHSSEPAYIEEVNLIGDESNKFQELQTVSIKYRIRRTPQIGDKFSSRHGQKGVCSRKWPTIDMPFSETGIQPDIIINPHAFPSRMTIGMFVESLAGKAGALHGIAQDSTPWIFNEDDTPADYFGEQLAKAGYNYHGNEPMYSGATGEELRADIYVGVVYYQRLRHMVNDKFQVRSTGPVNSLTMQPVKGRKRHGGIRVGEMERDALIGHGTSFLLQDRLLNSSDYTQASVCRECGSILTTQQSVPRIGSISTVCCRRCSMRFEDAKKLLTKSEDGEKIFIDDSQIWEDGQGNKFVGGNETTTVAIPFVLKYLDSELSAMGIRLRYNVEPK

T2: Pol I subunit A49 (S. cerevisiae, UniProt Q01080 1-415)
T2 construct: Pol I subunit A49, S. cerevisiae; Stood in the assay as a subunit of the whole Pol I; source: endogenous, purified from yeast as part of Pol I
T2 sequence (looked up): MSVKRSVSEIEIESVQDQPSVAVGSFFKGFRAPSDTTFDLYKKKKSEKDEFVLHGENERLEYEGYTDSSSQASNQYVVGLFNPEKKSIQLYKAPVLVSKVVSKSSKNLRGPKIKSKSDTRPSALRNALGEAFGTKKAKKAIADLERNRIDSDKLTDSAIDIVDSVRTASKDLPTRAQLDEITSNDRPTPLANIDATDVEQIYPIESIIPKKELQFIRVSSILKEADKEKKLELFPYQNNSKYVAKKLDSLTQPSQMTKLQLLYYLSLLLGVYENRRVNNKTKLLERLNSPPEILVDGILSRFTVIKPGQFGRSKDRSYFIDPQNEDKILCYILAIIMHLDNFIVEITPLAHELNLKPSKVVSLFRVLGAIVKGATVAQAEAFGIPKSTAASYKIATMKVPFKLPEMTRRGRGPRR

B1: Rrn3 (natural protein, S. cerevisiae)
chain: MMAFENTSKRPPQDFVAPIDQKKRKVQFSDSTGLVTLQPEEIKDEVFSAAMYSRFVKSALDDLDKNDSTQIGIIANQVALPSKNPERINDKNLNILLDILSSNINRIESSRGTFLIQSIINFEKWWELPPHTLSKYIYFIKILCSSIPKWWQDVSMILVSCFILPIKQTVCHHDMLKYFLRMIPSSMGFIDTYLAKFFPNKNDTRRKLVNYTSNLLKLRGYCSELGFQIWSLLIEKIISIDVELQNELDELDDDVDDDDLEEVDLEDDDDLDDDSGDDDDENCGNSNEELRSGAADGSQSDSEDMDIIEGMDGTEEYNVELTQGIKELSTKLDSILTLVSTHVEEQVTPESLESGEGVGVFNTLTTLFKTHVLPTYYTRSIQYIMFHVSQQQLELMDSFLVTLIDISFAVNEAAEKKIKSLQYLGSYIARAKKLSRTQIIFVASYLTSWLNRYVIEREEEVDQRGGMERFKHFYAAFQALCYIFCFRHNIFRDTDGNWECELDKFFQRMVISKFNPLKFCNENVMLMFARIAQQESVAYCFSIIENNNNERLRGIIGKADSDKKENSAQANTTSSSWSLATRQQFIDLQSYFPYDPLFLKNYKILMKEYYIEWSEASGEYESDGSDD
notes: Rrn3, Pol I-specific initiation factor, S. cerevisiae; also called Pol I-specific initiation factor Rrn3
B2: Pol I subunit AC40 (natural protein, S. cerevisiae, UniProt P07703 1-335, looked up)
chain: MSNIVGIEYNRVTNTTSTDFPGFSKDAENEWNVEKFKKDFEVNISSLDAREANFDLINIDTSIANAFRRIMISEVPSVAAEYVYFFNNTSVIQDEVLAHRIGLVPLKVDPDMLTWVDSNLPDDEKFTDENTIVLSLNVKCTRNPDAPKGSTDPKELYNNAHVYARDLKFEPQGRQSTTFADCPVVPADPDILLAKLRPGQEISLKAHCILGIGGDHAKFSPVSTASYRLLPQINILQPIKGESARRFQKCFPPGVIGIDEGSDEAYVKDARKDTVSREVLRYEEFADKVKLGRVRNHFIFNVESAGAMTPEEIFFKSVRILKNKAEYLKNCPITQ
notes: Pol I subunit AC40, S. cerevisiae; Stood in the assay as a subunit of the whole Pol I; source: endogenous, purified from yeast as part of Pol I
B3: Pol I subunit A34.5 (natural protein, S. cerevisiae, UniProt P47006 1-233, looked up)
chain: MSKLSKDYVSDSDSDDEVISNEFSIPDGFKKCKHLKNFPLNGDNKKKAKQQQVWLIKFPSNVDISKLKSLPVDFESSTTMTIDKHDYKIMDDTDIESSLTQDNLSNMTLLVPSESKESLKIASTAKDNAPLQFDKVFSVSETAKIPAIDYSKVRVPRKDVPKVEGLKLEHFATGYDAEDFHVAEEVKENKKEPKKRSHHDDEEESSEKKKKKKEKREKREKKDKKDKKKKHRD
notes: Pol I subunit A34.5, S. cerevisiae; Stood in the assay as a subunit of the whole Pol I; source: endogenous, purified from yeast as part of Pol I
B4: Pol I subunit AC19 (natural protein, S. cerevisiae, UniProt P28000 1-142, looked up)
chain: MTEDIEQKKTATEVTPQEPKHIQEEEEQDVDMTGDEEQEEEPDREKIKLLTQATSEDGTSASFQIVEEDHTLGNALRYVIMKNPDVEFCGYSIPHPSENLLNIRIQTYGETTAVDALQKGLKDLMDLCDVVESKFTEKIKSM
notes: Pol I subunit AC19, S. cerevisiae; Stood in the assay as a subunit of the whole Pol I; source: endogenous, purified from yeast as part of Pol I

What all share (test): cryo-EM structure; Pol I incubated with fivefold excess of Rrn3 and CF overnight at 4 °C, SEC in buffer A (150 mM sodium chloride, 5 mM HEPES pH 7.8, 1 mM magnesium chloride, 10 μM zinc chloride, 5 mM dithiothreitol), crosslinked with 1 mM BS3; single-particle reconstruction at 4.8 Å from 63,445 particles; crystal structures fitted as rigid bodies
What all share (conditions): both partners purified

For one experiment, the target named is T3, Pol I subunit A190 (S. cerevisiae, UniProt P10964 1-1664).
T3 construct: Pol I subunit A190, S. cerevisiae; Stood in the assay as a subunit of the whole Pol I; source: endogenous, purified from yeast as part of Pol I
T3 sequence (P10964 whole entry): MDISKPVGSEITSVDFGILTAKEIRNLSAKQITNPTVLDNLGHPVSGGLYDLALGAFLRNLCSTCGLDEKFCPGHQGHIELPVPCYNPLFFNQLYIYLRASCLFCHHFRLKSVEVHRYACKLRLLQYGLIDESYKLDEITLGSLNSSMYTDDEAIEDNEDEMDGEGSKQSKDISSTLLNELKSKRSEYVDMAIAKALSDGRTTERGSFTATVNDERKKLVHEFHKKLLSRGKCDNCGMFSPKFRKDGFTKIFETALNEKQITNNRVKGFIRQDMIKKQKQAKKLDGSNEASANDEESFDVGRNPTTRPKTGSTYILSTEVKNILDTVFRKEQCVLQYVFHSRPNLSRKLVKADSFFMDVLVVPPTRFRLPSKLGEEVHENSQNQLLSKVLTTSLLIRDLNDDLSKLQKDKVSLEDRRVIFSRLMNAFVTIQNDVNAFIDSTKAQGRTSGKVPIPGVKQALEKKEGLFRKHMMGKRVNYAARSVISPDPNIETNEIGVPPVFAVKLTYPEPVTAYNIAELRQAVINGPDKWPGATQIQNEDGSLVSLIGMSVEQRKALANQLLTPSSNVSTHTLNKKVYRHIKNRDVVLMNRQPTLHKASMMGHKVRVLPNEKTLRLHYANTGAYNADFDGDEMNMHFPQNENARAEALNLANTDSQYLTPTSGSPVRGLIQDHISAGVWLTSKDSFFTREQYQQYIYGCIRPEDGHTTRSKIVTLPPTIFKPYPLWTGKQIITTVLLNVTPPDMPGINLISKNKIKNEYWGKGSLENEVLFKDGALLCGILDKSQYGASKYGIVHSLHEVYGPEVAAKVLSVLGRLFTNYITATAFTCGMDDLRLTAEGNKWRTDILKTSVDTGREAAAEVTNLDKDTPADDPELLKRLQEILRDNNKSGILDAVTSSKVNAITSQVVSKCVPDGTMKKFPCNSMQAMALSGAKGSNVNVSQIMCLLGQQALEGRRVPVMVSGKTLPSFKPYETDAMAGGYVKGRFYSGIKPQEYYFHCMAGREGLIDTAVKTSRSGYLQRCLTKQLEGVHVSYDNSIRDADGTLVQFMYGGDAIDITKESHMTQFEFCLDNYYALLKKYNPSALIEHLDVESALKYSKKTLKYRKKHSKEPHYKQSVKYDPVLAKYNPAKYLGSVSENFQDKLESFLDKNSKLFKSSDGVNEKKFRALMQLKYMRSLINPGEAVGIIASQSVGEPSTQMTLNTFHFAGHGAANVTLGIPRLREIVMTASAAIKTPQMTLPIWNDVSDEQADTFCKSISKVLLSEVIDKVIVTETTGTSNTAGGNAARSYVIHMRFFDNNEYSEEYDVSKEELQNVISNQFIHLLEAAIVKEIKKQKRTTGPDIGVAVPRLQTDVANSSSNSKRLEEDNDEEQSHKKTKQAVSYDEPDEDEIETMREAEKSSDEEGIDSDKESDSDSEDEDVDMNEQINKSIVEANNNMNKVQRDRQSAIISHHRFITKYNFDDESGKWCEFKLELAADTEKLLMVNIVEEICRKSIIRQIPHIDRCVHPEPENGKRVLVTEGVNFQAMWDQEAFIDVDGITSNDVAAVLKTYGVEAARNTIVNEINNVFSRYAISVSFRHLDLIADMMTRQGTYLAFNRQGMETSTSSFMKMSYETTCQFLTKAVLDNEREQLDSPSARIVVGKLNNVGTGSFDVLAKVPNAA

In another experiment the target is T1, Pol I subunit A135.
The experiment “Rrn3” addresses B1.
The target in a further experiment is T2, Pol I subunit A49.
The experiment “Pol I subunit AC40” has as its target B2.

Regarding B1, the binding result in the experiment with Pol I subunit A190 and with Pol I subunit A135 was “binds” each time.

Turning to B2, in the experiment with Rrn3, the binding result is recorded as “binds”.

As to B3, the binding result in the experiment with Pol I subunit A49 is listed as “binds”.

For the molecule B4, the binding result with Rrn3 and with Pol I subunit AC40 was “binds” each time.

Values taken from publication PMC4947163, “RNA polymerase I–Rrn3 complex at 4.8 Å resolution” (Nature Communications, 2016).
